Reference: publication PMC1277818, “Substrate specificity analysis of protein kinase complex Dbf2-Mob1 by peptide library and proteome array screening” (BMC Biochemistry, 2005)

B1: YDR299W: GST fusion yeast protein on proteome chip (protein, UniProt Q06631 1-534, looked up)
Protein BFR2: MEKSLADQISDIAIKPVNKDFDIEDEENASLFQHNEKNGESDLSDYGNSNTEETKKAHYLEVEKSKLRAEKGLELNDPKYTGVKGSRQALYEEVSENEDEEEEEEEEEEKEEDALSFRTDSEDEEVEIDEEESDADGGETEEAQQKRHALSKLIQQETKQAINKLSQSVQRDASKGYSILQQTKLFDNIIDLRIKLQKAVIAANKLPLTTESWEEAKMDDSEETKRLLKENEKLFNNLFNRLINFRIKFQLGDHITQNEEVAKHKLSKKRSLKELYQETNSLDSELKEYRTAVLNKWSTKVSSASGNAALSSNKFKAINLPADVQVENQLSDMSRLMKRTKLNRRNITPLYFQKDCANGRLPELISPVVKDSVDDNENSDDGLDIPKNYDPRRKDNNAIDITENPYVFDDEDFYRVLLNDLIDKKISNAHNSESAAITITSTNARSNNKLKKNIDTKASKGRKLNYSVQDPIANYEAPITSGYKWSDDQIDEFFAGLLGQRVNFNENEDEEQHARIENDEELEAVKNDDIQIFG
modifications: GST tag
notes: GST fusion yeast protein on proteome chip
B2: YKL146W: GST fusion yeast protein on proteome chip (protein, UniProt P36062 1-692, looked up)
Vacuolar amino acid …: MNGKEVSSGSGRTQSNNNKKNNNGGSTGISHASGSPLTDGNGGNSNGNSRSRSRSRKSSGTTGGLLKKPPLLVNNEAVHASVPDASHTSCNNGTLEVSINNPEPHVVDAVARHLIRNPSNSLQLQGGDITRDLYKWTNDHPSSPSQYQYPSQPALSTSIPSQAPSFSNRKRSMSFSAASIASSSHLNNNSEANGNPLAAIGLAPAPMTHEEIRAPGGFRRSFIIQKRRKHNVDAPIPNFFTRNFIEFLTLYGHFAGEDLSEEEEEEEETEEEPEEEALETESTQLVSREHGRHPHKSSTVKAVLLLLKSFVGTGVLFLPKAFHNGGWGFSALCLLSCALISYGCFVSLITTKDKVGVDGYGDMGRILYGPKMKFAILSSIALSQIGFSAAYTVFTATNLQVFSENFFHLKPGSISLATYIFAQVLIFVPLSLTRNIAKLSGTALIADLFILLGLVYVYVYSIYYIAVNGVASDTMLMFNKADWSLFIGTAIFTFEGIGLLIPIQESMKHPKHFRPSLSAVMCIVAVIFISCGLLCYAAFGSDVKTVVLLNFPQDTSYTLTVQLLYALAILLSTPLQLFPAIRILENWTFPSNASGKYNPKVKWLKNYFRCAIVVLTSILAWVGANDLDKFVSLVGSFACIPLIYIYPPLLHYKASILSGTSRARLLLDLIVIVFGVAVMAYTSWQTIKMWSQ
modifications: GST tag
notes: as for B1
B3: YGL105W: GST fusion yeast protein on proteome chip (protein, UniProt P46672 1-376, looked up)
tRNA-aminoacylation cofactor …: MSDLVTKFESLIISKYPVSFTKEQSAQAAQWESVLKSGQIQPHLDQLNLVLRDNTFIVSTLYPTSTDVHVFEVALPLIKDLVASSKDVKSTYTTYRHILRWIDYMQNLLEVSSTDKLEINHDLDLPHEVIEKKKKAPAGGAADAAAKADEDVSKKAKKQDHPRGKPDEETLKKLREEAKAKKAAKKAANAKQQQEQQNKAPEKPKPSAIDFRVGFIQKAIKHPDADSLYVSTIDVGDEEGPRTVCSGLVKHFPLDAMQERYVVVVCNLKPVNMRGIKSTAMVLCGSNDDKVEFVEPPKDSKAGDKVFFEGFGDEAPMKQLNPKKKIWEHLQPHFTTNDGLEVIFKDEEEKDHPVRKLTNAKGESFKVASIANAQVR
modifications: GST fusion
notes: as for B1
B4: YGR264C: GST fusion yeast protein on proteome chip (protein, UniProt P00958 2-751, looked up)
Methionine--tRNA ligase, …: SFLISFDKSKKHPAHLQLANNLKIALALEYASKNLKPEVDNDNAAMELRNTKEPFLLFDANAILRYVMDDFEGQTSDKYQFALASLQNLLYHKELPQQHVEVLTNKAIENYLVELKEPLTTTDLILFANVYALNSSLVHSKFPELPSKVHNAVALAKKHVPRDSSSFKNIGAVKIQADLTVKPKDSEILPKPNERNILITSALPYVNNVPHLGNIIGSVLSADIFARYCKGRNYNALFICGTDEYGTATETKALEEGVTPRQLCDKYHKIHSDVYKWFQIGFDYFGRTTTDKQTEIAQHIFTKLNSNGYLEEQSMKQLYCPVHNSYLADRYVEGECPKCHYDDARGDQCDKCGALLDPFELINPRCKLDDASPEPKYSDHIFLSLDKLESQISEWVEKASEEGNWSKNSKTITQSWLKDGLKPRCITRDLVWGTPVPLEKYKDKVLYVWFDATIGYVSITSNYTKEWKQWWNNPEHVSLYQFMGKDNVPFHTVVFPGSQLGTEENWTMLHHLNTTEYLQYENGKFSKSRGVGVFGNNAQDSGISPSVWRYYLASVRPESSDSHFSWDDFVARNNSELLANLGNFVNRLIKFVNAKYNGVVPKFDPKKVSNYDGLVKDINEILSNYVKEMELGHERRGLEIAMSLSARGNQFLQENKLDNTLFSQSPEKSDAVVAVGLNIIYAVSSIITPYMPEIGEKINKMLNAPALKIDDRFHLAILEGHNINKAEYLFQRIDEKKIDEWRAKYGGQQV
modifications: GST tag
notes: as for B1
B5: YPL211W: GST fusion yeast protein on proteome chip (protein, UniProt Q08962 1-181, looked up)
60S ribosome subunit …: MRQLTEEETKVVFEKLAGYIGRNISFLVDNKELPHVFRLQKDRVYYVPDHVAKLATSVARPNLMSLGICLGKFTKTGKFRLHITSLTVLAKHAKYKIWIKPNGEMPFLYGNHVLKAHVGKMSDDIPEHAGVIVFAMNDVPLGFGVSAKSTSESRNMQPTGIVAFRQADIGEYLRDEDTLFT
modifications: GST tag
notes: as for B1
B6: YOL104C: GST fusion yeast protein on proteome chip (protein, UniProt Q12366 1-352, looked up)
Non-disjunction protein 1: MSKDNRLASILLQPVASSSGNCTEFHDSKLHTLQEELNFLPLEGVASNVCPPMFRGHKNYVFVLYCLNQVDLVTNLQDSTKRYYPLQIFKDCQLSSLVQKDFSHYFQLSRQKEGEDRNDSDTTLVNVVNSGVSRHRSQLLKMCIIPRICSFDKSNSKTYKLIQEYVNRFETVLTKFGPEKDFTKVYANWSKLIESFNELILHDLLVKWQQWSELTQPNATVHQNIPNVLRELVIKLTQRYFTFQPSYSCSIDEFTTILLNKNALSLLDVFRKPRKYKLNFGLWLDCQNGILIFTNGIVQMADEITSERVKSFVRPAHLLVLEDHSNDEAVKKLMFFTFSAILQCFTDEILNC
modifications: GST tag
notes: as for B1
B7: YIL010W: GST fusion yeast protein on proteome chip (protein, UniProt P40553 1-215, looked up)
Peroxiredoxin DOT5: MGEALRRSTRIAISKRMLEEEESKLAPISTPEVPKKKIKTGPKHNANQAVVQEANRSSDVNELEIGDPIPDLSLLNEDNDSISLKKITENNRVVVFFVYPRASTPGCTRQACGFRDNYQELKKYAAVFGLSADSVTSQKKFQSKQNLPYHLLSDPKREFIGLLGAKKTPLSGSIRSHFIFVDGKLKFKRVKISPEVSVNDAKKEVLEVAEKFKEE
modifications: GST tag
notes: as for B1
B8: YML035C: GST fusion yeast protein on proteome chip (protein, UniProt P15274 1-810, looked up)
AMP deaminase: MDNQATQRLNDLSLEPAPSHDEQDGSGLVIDIDQRKIGDEQAGVVVDDETPPLEQQDSHESLAADSRNANFSYHENQQLLENGTKQLALDEHDSHSAILEQPSHSTNCSSSNIAAMNKGHDSADHASQNSGGKPRTLSASAQHILPETLKSFAGAPVVNKQVRTSASYKMGMLADDASQQFLDDPSSELIDLYSKVAECRNLRAKYQTISVQNDDQNPKNKPGWVVYPPPPKPSYNSDTKTVVPVTNKPDAEVFDFTKCEIPGEDPDWEFTLNDDDSYVVHRSGKTDELIAQIPTLRDYYLDLEKMISISSDGPAKSFAYRRLQYLEARWNLYYLLNEYQETSVSKRNPHRDFYNVRKVDTHVHHSACMNQKHLLRFIKHKLRHSKDEKVIFRDGKLLTLDEVFRSLHLTGYDLSIDTLDMHAHKDTFHRFDKFNLKYNPIGESRLREIFLKTNNYIKGTYLADITKQVIFDLENSKYQNCEYRISVYGRSLDEWDKLASWVIDNKVISHNVRWLVQIPRLYDIYKKTGIVQSFQDICKNLFQPLFEVTKNPQSHPKLHVFLQRVIGFDSVDDESKVDRRFHRKYPKPSLWEAPQNPPYSYYLYYLYSNVASLNQWRAKRGFNTLVLRPHCGEAGDPEHLVSAYLLAHGISHGILLRKVPFVQYLYYLDQVGIAMSPLSNNALFLTYDKNPFPRYFKRGLNVSLSTDDPLQFSYTREPLIEEYSVAAQIYKLSNVDMCELARNSVLQSGWEAQIKKHWIGKDFDKSGVEGNDVVRTNVPDIRINYRYDTLSTELELVNHFANFKRTIEEK
modifications: GST tag
notes: as for B1

These molecules were tested against T1, FHHDbf2-H6Mob1TM9 (Saccharomyces cerevisiae, UniProt P22204+P40484) (assay: Yeast proteome chip assay). Details: Table 3; GST fusion proteins on proteome chip, [γ-33P]ATP, chips in duplicate, computer analysis.
T1 construct: made in house; host or cells: Hi5 insect cells (baculovirus)
T1 sequence (P22204 1-572): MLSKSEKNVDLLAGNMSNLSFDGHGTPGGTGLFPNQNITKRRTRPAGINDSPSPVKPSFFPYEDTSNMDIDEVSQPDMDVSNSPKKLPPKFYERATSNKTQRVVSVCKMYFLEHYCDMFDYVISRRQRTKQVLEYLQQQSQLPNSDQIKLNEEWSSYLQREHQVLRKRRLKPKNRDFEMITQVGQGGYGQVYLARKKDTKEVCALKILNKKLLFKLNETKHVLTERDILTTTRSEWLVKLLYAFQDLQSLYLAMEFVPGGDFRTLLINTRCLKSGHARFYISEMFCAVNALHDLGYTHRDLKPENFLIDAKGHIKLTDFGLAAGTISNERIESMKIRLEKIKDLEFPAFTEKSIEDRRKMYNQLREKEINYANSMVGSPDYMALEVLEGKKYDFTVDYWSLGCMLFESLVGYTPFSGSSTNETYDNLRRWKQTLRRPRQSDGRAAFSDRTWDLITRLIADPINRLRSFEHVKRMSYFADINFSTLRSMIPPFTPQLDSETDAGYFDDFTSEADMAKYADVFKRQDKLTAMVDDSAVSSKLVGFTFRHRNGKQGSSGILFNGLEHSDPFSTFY
T1 sequence (P40484 1-314 partner): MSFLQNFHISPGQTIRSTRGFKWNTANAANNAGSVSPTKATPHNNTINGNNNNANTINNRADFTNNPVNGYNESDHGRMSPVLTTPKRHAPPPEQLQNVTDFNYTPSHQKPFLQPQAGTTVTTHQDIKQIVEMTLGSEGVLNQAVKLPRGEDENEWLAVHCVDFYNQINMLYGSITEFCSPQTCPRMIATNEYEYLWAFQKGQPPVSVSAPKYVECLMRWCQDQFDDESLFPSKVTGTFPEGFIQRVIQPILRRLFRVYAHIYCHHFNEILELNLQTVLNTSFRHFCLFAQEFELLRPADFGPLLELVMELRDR
Assay type: biochemical
Description: The relatively low sequence complexity of the Dbf2 phosphorylation motif diminished the power of using genome-wide bioinformatics screens to identify putative substrates. Accordingly, we carried out a proteome array screen to identify putative yeast substrates. […] After taking into account the proteins phosphorylated in the negative controls, 67 proteins were determined to be putative Dbf2-Mob1 substrates (Table 3).
Yeast proteome microarrays were prepared as previously described. Overexpressed GST-tagged yeast proteins were purified from ~4,400 yeast strains and spotted on slides. To determine the optimal amount of kinase to use for probing proteome chips, we performed trial assays as described (J. Ptacek et al., submitted). […] The full proteome array was probed with 4 μl ^FHHDbf2-^H6Mob1^TM9 in 200 μl of DKB supplemented with [γ-^33P]ATP. As a control, ^FHHDbf2(N305A)-^H6Mob1^TM9 was used to probe the proteome array. […] To control for autophosphorylated proteins, the proteome array was probed with 200 μl of DKB supplemented with [γ-^33P]ATP. Proteome chips were assayed in duplicate in each case. Data analysis was performed as described (J. Ptacek et al., submitted). Briefly, signals were analyzed by a computer algorithm designed to normalize background and identify signals as positive if 3 of 4 spots (each protein is spotted twice on each slide and each kinase or control was tested on 2 slides) were 2 standard deviations above background and the fourth spot was 1.5 standard deviations above background.

Row | Molecule | Slide Signal (after normalization)
1 | B1 | 0.47
2 | B2 | 0.3592
3 | B3 | 0.1332
4 | B4 | 0.1328
5 | B5 | 0.4521
6 | B6 | 0.3611
7 | B7 | 0.2606
8 | B8 | 0.1384
